Laboratory results reported in article PMC3967914.

Molecular target: MHF1 (CENP-S);MHF2 (CENP-X) (Homo sapiens;Homo sapiens, UniProt Q8N2Z9;A8MT69 1-138;1-81, |)
Experiment: X-ray crystallography

MHF1 (CENP-S);MHF2 (CENP-X), sequence (Q8N2Z9 whole entry, chain 1 of 2): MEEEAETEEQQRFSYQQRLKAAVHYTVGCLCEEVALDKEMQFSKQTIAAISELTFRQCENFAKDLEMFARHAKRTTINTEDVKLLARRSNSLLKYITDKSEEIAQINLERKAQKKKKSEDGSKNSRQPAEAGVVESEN
MHF1 (CENP-S);MHF2 (CENP-X), sequence (A8MT69 whole entry, chain 2 of 2): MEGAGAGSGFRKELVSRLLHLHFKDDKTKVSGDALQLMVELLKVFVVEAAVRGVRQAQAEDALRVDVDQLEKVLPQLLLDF

B1: 26 bp dsDNA (crystal) (dsDNA)
DNA 1: ATCAATATCCACCGGTGGATATTGAT
DNA 2: ATCAATATCCACCGGTGGATATTGAT
binding result: binds
